Measurements: article PMC5558906
Like-named read-outs stand apart in the source and are kept apart here.

How the values were obtained:
Assay in all cases: EMSA
eIF4G1 [1] = biological target: T1, eIF4G1 (Saccharomyces cerevisiae, UniProt P39935 1-952)
T1 sequence: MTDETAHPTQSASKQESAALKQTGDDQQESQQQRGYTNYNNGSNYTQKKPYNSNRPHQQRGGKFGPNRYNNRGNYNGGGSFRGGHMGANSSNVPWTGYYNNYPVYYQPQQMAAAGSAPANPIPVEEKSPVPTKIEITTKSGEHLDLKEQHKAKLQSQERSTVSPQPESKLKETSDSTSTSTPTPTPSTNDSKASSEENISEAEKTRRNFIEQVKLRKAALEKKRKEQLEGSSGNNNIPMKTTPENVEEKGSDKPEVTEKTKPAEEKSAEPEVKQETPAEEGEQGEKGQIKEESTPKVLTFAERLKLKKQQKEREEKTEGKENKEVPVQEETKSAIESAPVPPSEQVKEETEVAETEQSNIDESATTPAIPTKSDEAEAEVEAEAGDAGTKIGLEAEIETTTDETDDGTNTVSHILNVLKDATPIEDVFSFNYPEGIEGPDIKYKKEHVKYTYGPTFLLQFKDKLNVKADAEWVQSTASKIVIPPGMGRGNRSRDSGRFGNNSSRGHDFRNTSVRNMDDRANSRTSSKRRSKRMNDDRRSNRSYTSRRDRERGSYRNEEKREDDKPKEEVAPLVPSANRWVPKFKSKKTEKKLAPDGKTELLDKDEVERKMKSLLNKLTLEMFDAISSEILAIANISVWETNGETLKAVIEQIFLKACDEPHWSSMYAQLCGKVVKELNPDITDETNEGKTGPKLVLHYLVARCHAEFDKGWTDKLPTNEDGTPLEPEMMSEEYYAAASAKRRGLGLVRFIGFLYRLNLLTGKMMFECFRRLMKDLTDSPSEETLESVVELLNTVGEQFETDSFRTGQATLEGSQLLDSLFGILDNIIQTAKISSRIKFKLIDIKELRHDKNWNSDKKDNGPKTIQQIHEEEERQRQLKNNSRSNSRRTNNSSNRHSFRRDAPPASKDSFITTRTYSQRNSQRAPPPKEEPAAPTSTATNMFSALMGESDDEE

eIF4G1 [2] = biological target: T1, eIF4G1; remark: listed apart in the source
eIF4G1 [3] = biological target: T1, eIF4G1; remark: listed apart in the source

AAAAAAAAAAAAAAAAAAAAAAAAAAAAAAAAAAAAAAAA (ssRNA) [A40] showed a binding signal (eIF4G1 [1]) of 17 fold weaker than U40.

Binder UUUUUUUUUUUUUUUUUUUUUUUUUUUUUUUUUUUUUUUU (ssRNA) [U40] has a binding signal (eIF4G1 [2]) of 17 fold tighter than A40.

B1: U10 in CA repeats (ssRNA)
RNA: GCACACACACACACACACACAUUUUUUUUUUCACACACACACACACACACA
B1: binds (eIF4G1 [3]).
